Tests used:
[1] = tested on: mice neutrophils; assay: Neutrophils counts in mice; type: in vivo; conditions: mice blood, 10th day post-injection, neutrophils among white blood cells
Experimental: On the 10th day after injection of BLV1H12-bGCSF fusion antibodies into mice for PK study, blood samples were drawn from the mice and stained using the Diff Quick Staining Kit (Thermo Fisher Scientific, IL). Neutrophils and white blood cells were counted under microscope and the percentages of neutrophils were analyzed. FIGS. 12A-12B and Table 12 show proliferative activities of BLV1H12-bGCSF fusion antibodies on mice neutrophils that are blood stained and counted at the 10th day post-injection.

[2] = tested on: Mouse NFS-60 cells; assay: Proliferation assay on mouse NFS-60 cells (AlamarBlue); type: cell-based; conditions: for F.I. (AlamarBlue fluorescence at 595 nm, cell viability): 72 hours
Experimental: Mouse NFS-60 cells were obtained from American Type Culture Collection (ATCC), VA, and cultured in RPMI-1640 medium supplemented with 10% fetal bovine serum (FBS), 0.05 mM 2-mercapoethanol and 62 ng/ml human macrophage colony stimulating factor (M-CSF). For proliferation assay, mouse NFS-60 cells were washed three times with RPMI-1640 medium and resuspended in RPMI-1640 medium with 10% FBS and 0.05 mM 2-mercapoethanol at a density of 1.5×10^5 cells/ml. In 96-well plates, 100 μl of cell suspension was added into each well, followed by the addition of varied concentrations of bGCSF, BLV1H12 antibody, and the immunoglobulin constructs described herein, Equal volume of PBS buffer was added into the control wells. The plates were incubated at 37° C. in a 5% CO2 incubator for 72 hours. Cells were then treated with AlamarBlue (Invitrogen) ( 1/10 volume of cell suspension) for 4 hours at 37° C. Fluorescence at 595 nm for each well was read to indicate the cell viability.

[3] = tested on: TF-1 cells; assay: Proliferation assay on TF-1 cells (AlamarBlue); type: cell-based; conditions: 72 h
Experimental: TF-1 cells were obtained from American Type Culture Collection (ATCC), VA, and cultured in RPMI-1640 medium supplemented with 10% fetal bovine serum (FBS), penicillin, streptomycin and 2 ng/mL granulocyte-macrophage colony-stimulating factor (GM-CSF). For proliferation assay, TF-1 cells were washed three times with RPMI-1640 medium and resuspended in RPMI-1640 medium with 10% FBS and penicillin and streptomycin at a density of 1.5×10^5 cells/ml. Cells were plated in 96-well plates and treated with varied concentrations of BLV1H12-hEPO fusion antibodies. After 72 h of incubation at 37° C. with 5% CO2, cells viabilities were measured using AlamarBlue (Invitrogen) assay following manufacture's instruction. FIG. 21 and Table 18 show the proliferative activity of Ab-hEPO fusion antibodies on TF1 cells.

[4] = Pharmacokinetics of BLV1H12-bGCSF fusion antibodies in mice; type: in vivo; conditions: BALB/c mice, 70 μg injected
Experimental: For PK study in mice, 70 μg of the immunoglobulin constructs described herein were injected into 3 BALB/c mice per group. Blood samples were drawn from time 0 to 14 days with extended intervals and analyzed by ELISA using anti-human IgG Fc antibody with horseradish peroxidase (HRP) labeled (KPL) and anti-6×His antibody with HRP labeled (Clontech). Data were normalized by taking maximal concentration at the first time point (30 min).

[5] = tested on: Parental U2OS; assay: Flow cytometry binding to parental cells; conditions: cell culture supernatant containing expressed IgG, anti-Human Fc detection
Experimental: Briefly, a cell line expressing functionally validated CXCR1 derived from U2OS cells was obtained from DiscoveRx and cultured per manufacturer's instructions (Cat#93-0226C3, DiscoveRx Corporation, Freemont, Calif.). The parental cell line U20S was obtained from ATCC and cultured under the same conditions as the CXCR1 cells. Cell culture supernatants from Example 2 above were then tested for binding to cells by flow cytometry. The adherent U20S or CXCR1-U20S cells were dissociated with Accutase (Innovative Cell Technologies, Inc., San Diego, Calif.), neutralized with an equal volume of media containing 10% serum, centrifuged at 1000 g, and resuspended in PBS with 2% BSA. Next, cells were dispensed into microtiter plates to achieve between 30,000 to 300,000 cells per well, centrifuged again, and resuspended in cell culture supernatant containing expressed IgG, or a dilution of IgG-containing cell culture supernatant. A fluorescent-conjugated anti-Human Fc antibody was used to detect binding of the expressedBLV1H12-IL8 fusion proteins to cells.

[6] = target: T1, GLP-1 receptor (GLP-1R) (Homo sapiens, UniProt P43220); assay: GLP-1R activation, cAMP responsive luciferase reporter in HEK293 cells; type: cell-based; conditions: HEK293 cells expressing GLP-1R, 24 h
T1 construct: expressed in transfected cells; host or cells: HEK293 cells expressing surface GLP-1R and a cAMP responsive luciferase reporter
Experimental: HEK293 cells expressing surface GLP-1R and cAMP responsive luciferase reporter gene were seeded in 384 well plates at a density of 5000 cells per well. […] Subsequently, luciferase assay was performed using One-Glo luciferase reagent according manufacture's instruction (Promega).
HEK293 cells expressing surface GLP-1R and cAMP responsive luciferase reporter gene were seeded in 384 well plates at a density of 5000 cells per well. After 24 h incubation at 37° C. with 5% CO2, cells were treated with various concentrations of peptides and BLV1H12-GLP-1 clip fusion proteins and incubated for another 24 h. Subsequently, luciferase assay was performed using One-Glo luciferase reagent according manufacture's instruction (Promega).

T1 sequence (P43220 24-463, species assumed): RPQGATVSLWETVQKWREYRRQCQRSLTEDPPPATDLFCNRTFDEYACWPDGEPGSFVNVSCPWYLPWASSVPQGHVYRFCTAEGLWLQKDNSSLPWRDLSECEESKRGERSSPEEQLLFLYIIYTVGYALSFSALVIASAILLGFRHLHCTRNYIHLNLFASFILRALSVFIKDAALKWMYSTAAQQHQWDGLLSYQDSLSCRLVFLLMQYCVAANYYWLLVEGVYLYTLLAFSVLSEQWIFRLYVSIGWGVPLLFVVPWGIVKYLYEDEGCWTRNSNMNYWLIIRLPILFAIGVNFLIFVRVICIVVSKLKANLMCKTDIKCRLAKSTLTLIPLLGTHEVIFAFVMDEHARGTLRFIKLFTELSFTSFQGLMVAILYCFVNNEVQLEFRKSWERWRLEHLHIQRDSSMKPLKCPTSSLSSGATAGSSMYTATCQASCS

B1: Ab: bovine BLV1H12 antibody with ultralong CDR3, no inserted polypeptide; heavy chain SEQ ID NO: 24, light chain SEQ ID NO: 23 (antibody)
heavy: QVQLRESGPSLVKPSQTLSLTCTASGFSLSDKAVGWVRQAPGKALEWLGSIDTGGNTGYNPGLKSRLSITKDNSKSQVSLSVSSVTTEDSATYYCTSVHQETKKYQSCPDGYRERSDCSNRPACGTSDCCRVSVFGNCLTTLPVSYSYTYNYEWHVDVWGQGLLVTVSS
light: QAVLNQPSSVSGSLGQRVSITCSGSSSNVGNGYVSWYQLIPGSAPRTLIYGDTSRASGVPDRFSGSRSGNTATLTISSLQAEDEADYFCASAEDSSSNAVFGSGTTLTVLGQPKSPPSVTLFPPSTEELNGNKATLVCLISDFYPGSVTVVWKADGSTITRNVETTRASKQSNSKYAASSYLSLTSSDWKSKGSYSCEVTHEGSTVTKTVKPSECS
In the case of B1, the “Percentage of Neutrophil” value [1] is reported as 18.81, the “proliferative activity on mouse NFS-60 cells” value [2] is reported as “lack of proliferative activity” and the “F.I. (AlamarBlue fluorescence at 595 nm, cell viability)” value ([2]; 0.45725 ng/mL) is reported as 1040. For the same molecule, the “F.I. (AlamarBlue fluorescence at 595 nm, cell viability)” value ([2]; 1.37174 ng/mL) was 1010, the “F.I. (AlamarBlue fluorescence at 595 nm, cell viability)” value ([2]; 4.11523 ng/mL) was 983.3 and the “F.I. (AlamarBlue fluorescence at 595 nm, cell viability)” value ([2]; 12.34568 ng/mL) was 971.8. The “F.I. (AlamarBlue fluorescence at 595 nm, cell viability)” value ([2]; 37.03704 ng/mL) was 960.5, the “F.I. (AlamarBlue fluorescence at 595 nm, cell viability)” value ([2]; 111.11111 ng/mL) was 991.83 and the “F.I. (AlamarBlue fluorescence at 595 nm, cell viability)” value ([2]; 333.33333 ng/mL) was 964.798. The “F.I. (AlamarBlue, cell viability)” value ([3]; 0.00236 nM) was 4274.07, the “F.I. (AlamarBlue, cell viability)” value ([3]; 0.01178 nM) was 4267.586 and the “F.I. (AlamarBlue, cell viability)” value ([3]; 0.05888 nM) was 3905.529. The “F.I. (AlamarBlue, cell viability)” value ([3]; 0.2944 nM) was 4091.452, the “F.I. (AlamarBlue, cell viability)” value ([3]; 1.472 nM) was 4109.106 and the “F.I. (AlamarBlue, cell viability)” value ([3]; 7.36 nM) was 4071.234. For the same molecule, the “F.I. (AlamarBlue, cell viability)” value ([3]; 36.8 nM) was 4100.011, the “F.I. (AlamarBlue, cell viability)” value ([3]; 184 nM) was 4413.497 and the “F.I. (AlamarBlue, cell viability)” value ([3]; 4.71E−04 nM) was 4223.257. For the same molecule, the “F.I. (AlamarBlue, cell viability)” value ([3]; 9.42E−05 nM) was 4108.119, the “Percentage (normalized to maximal concentration at the first time point, 30 min)” value ([4]; day 0.021) was 100.00% and the “Percentage (normalized to maximal concentration at the first time point, 30 min)” value ([4]; day 0.042) was 106.09%. For the same molecule, the “Percentage (normalized to maximal concentration at the first time point, 30 min)” value ([4]; day 0.083) was 95.88%, the “Percentage (normalized to maximal concentration at the first time point, 30 min)” value ([4]; day 0.125) was 86.54% and the “Percentage (normalized to maximal concentration at the first time point, 30 min)” value ([4]; day 0.250) was 74.26%. For the same molecule, the “Percentage (normalized to maximal concentration at the first time point, 30 min)” value ([4]; day 1.000) was 52.43%, the “Percentage (normalized to maximal concentration at the first time point, 30 min)” value ([4]; day 2.000) was 39.46% and the “Percentage (normalized to maximal concentration at the first time point, 30 min)” value ([4]; day 3.000) was 36.97%. The “Percentage (normalized to maximal concentration at the first time point, 30 min)” value ([4]; day 8.000) was 45.44%, the “Percentage (normalized to maximal concentration at the first time point, 30 min)” value ([4]; day 10.000) was 40.98% and the “Percentage (normalized to maximal concentration at the first time point, 30 min)” value ([4]; day 14.000) was 51.96%. The “Median Arbitrary Fluorescence Units (AFU)” value [5] was 4 AFU, the “RLU (luciferase reporter)” value ([6]; 1.26953 nM) was 5200 and the “RLU (luciferase reporter)” value ([6]; 2.53906 nM) was 5000. For the same molecule, the “RLU (luciferase reporter)” value ([6]; 5.07813 nM) was 5600, the “RLU (luciferase reporter)” value ([6]; 10.15625 nM) was 5500 and the “RLU (luciferase reporter)” value ([6]; 20.3125 nM) was 5380. The “RLU (luciferase reporter)” value ([6]; 40.625 nM) was 4600, the “RLU (luciferase reporter)” value ([6]; 81.25 nM) was 6140 and the “RLU (luciferase reporter)” value ([6]; 162.5 nM) was 5760. The “RLU (luciferase reporter)” value ([6]; 325 nM) was 5600, the “RLU (luciferase reporter)” value ([6]; 650 nM) was 5800 and the “RLU (luciferase reporter)” value ([6]; 1300 nM) was 14000.

Source: US20140050720A1, “ULTRALONG COMPLEMENTARITY DETERMINING REGIONS AND USES THEREOF” (THE SCRIPPS RESEARCH INSTITUTE, priority 2012, published 2014)
